Measured values reported in paper PMC3514331, “Structure-function analysis of Methanobacterium thermoautotrophicum RNA ligase – engineering a thermostable ATP independent enzyme” (BMC Molecular Biology, 2012).

Substrate: Nc1ncnc2c1ncn2[C@@H]1O[C@H](COP(=O)(O)OP(=O)(O)OP(=O)(O)O)[C@@H](O)[C@H]1O
Assay: purified protein
Format: biochemical, Methanothermobacter thermautotrophicus
Settings: 10 mM Mg2+, 30 min, covalent enzyme-AMP formation, labelled compound

Row | Protein | Km (10 mM bis-Tris propane pH 7.0, 65°C) | Km (10 mM bis-Tris propane pH 8.5, 65°C)
1 | MthRnl (Methanobacterium thermoautotrophicum RNA ligase) (Methanothermobacter thermautotrophicus str. Delta H) (protein, full-length codon-optimized ORF, N-terminal His10 tag (pET16b), expressed in E. coli, tag cleavage not mentioned; homodimer, about 46 kDa per monomer (10 pmol = 460 ng)) MNSMNSDIPFDLIQERTGVPSSRLKVAFARGSLRLLESAGMQALLFKKPLGDLEAGTVIYLGDETEVIRGFPKIRRTLLLSPTIQEHFRDRVAVEEKMNGYNVRIACLSSGETVALTRGGHVCPFTTRKAQELLDLSEFFREHPDLVICGEMIGRDNPYVSQDYPEVGPLGFRVFDLREKNTNRPLPVEERRALLDSYGLPNVRLFGVYPIEEAASEVADIIRALGMAGREGVVMKDPSMEVPPLKYTSSQAHARELAYAFSYPFDFGRPFFFSRVIREGFQAYELDESDDETRERARRLGEAIIYPMLERIKSISAGEAAYEDTVIDVEDREAAEEFIRHLVRLGVSATLADYRDGRATIRRFYQSTTDRINNYLKGGLY | 0.9 µM | 
2 | MthRnl (Methanobacterium thermoautotrophicum RNA ligase) (Methanothermobacter thermautotrophicus str. Delta H; K246A) (protein, full-length codon-optimized ORF, N-terminal His10 tag (pET16b), expressed in E. coli, tag cleavage not mentioned; homodimer, about 46 kDa per monomer (10 pmol = 460 ng)) MNSMNSDIPFDLIQERTGVPSSRLKVAFARGSLRLLESAGMQALLFKKPLGDLEAGTVIYLGDETEVIRGFPKIRRTLLLSPTIQEHFRDRVAVEEKMNGYNVRIACLSSGETVALTRGGHVCPFTTRKAQELLDLSEFFREHPDLVICGEMIGRDNPYVSQDYPEVGPLGFRVFDLREKNTNRPLPVEERRALLDSYGLPNVRLFGVYPIEEAASEVADIIRALGMAGREGVVMKDPSMEVPPLAYTSSQAHARELAYAFSYPFDFGRPFFFSRVIREGFQAYELDESDDETRERARRLGEAIIYPMLERIKSISAGEAAYEDTVIDVEDREAAEEFIRHLVRLGVSATLADYRDGRATIRRFYQSTTDRINNYLKGGLY |  | 60 µM
